Results as given in US20240368668A1, “SUBSTRATES AND BIOMARKERS OF ADAMTS7” (The Broad Institute, Inc., priority 2021, published 2024).
Square brackets hold non-standard residues; d marks the D form. Ends that are not written are not given here. pGlu = O=C1CC[C@@H](C(=O)O)N1

Biological target: T1, mouse ADAMTS7 (Mus musculus, UniProt Q68SA9)
T1 construct: Full-length mouse Adamts7 1-1857 (Uniprot Q68SA9, WT or E373Q catalytic mutant); expressed in transfected cells; host or cells: Human Coronary Artery Smooth Muscle Cells (HCA-SMC, Lonza), adenovirus 50 MOI
T1 sequence (Q68SA9 221-1657): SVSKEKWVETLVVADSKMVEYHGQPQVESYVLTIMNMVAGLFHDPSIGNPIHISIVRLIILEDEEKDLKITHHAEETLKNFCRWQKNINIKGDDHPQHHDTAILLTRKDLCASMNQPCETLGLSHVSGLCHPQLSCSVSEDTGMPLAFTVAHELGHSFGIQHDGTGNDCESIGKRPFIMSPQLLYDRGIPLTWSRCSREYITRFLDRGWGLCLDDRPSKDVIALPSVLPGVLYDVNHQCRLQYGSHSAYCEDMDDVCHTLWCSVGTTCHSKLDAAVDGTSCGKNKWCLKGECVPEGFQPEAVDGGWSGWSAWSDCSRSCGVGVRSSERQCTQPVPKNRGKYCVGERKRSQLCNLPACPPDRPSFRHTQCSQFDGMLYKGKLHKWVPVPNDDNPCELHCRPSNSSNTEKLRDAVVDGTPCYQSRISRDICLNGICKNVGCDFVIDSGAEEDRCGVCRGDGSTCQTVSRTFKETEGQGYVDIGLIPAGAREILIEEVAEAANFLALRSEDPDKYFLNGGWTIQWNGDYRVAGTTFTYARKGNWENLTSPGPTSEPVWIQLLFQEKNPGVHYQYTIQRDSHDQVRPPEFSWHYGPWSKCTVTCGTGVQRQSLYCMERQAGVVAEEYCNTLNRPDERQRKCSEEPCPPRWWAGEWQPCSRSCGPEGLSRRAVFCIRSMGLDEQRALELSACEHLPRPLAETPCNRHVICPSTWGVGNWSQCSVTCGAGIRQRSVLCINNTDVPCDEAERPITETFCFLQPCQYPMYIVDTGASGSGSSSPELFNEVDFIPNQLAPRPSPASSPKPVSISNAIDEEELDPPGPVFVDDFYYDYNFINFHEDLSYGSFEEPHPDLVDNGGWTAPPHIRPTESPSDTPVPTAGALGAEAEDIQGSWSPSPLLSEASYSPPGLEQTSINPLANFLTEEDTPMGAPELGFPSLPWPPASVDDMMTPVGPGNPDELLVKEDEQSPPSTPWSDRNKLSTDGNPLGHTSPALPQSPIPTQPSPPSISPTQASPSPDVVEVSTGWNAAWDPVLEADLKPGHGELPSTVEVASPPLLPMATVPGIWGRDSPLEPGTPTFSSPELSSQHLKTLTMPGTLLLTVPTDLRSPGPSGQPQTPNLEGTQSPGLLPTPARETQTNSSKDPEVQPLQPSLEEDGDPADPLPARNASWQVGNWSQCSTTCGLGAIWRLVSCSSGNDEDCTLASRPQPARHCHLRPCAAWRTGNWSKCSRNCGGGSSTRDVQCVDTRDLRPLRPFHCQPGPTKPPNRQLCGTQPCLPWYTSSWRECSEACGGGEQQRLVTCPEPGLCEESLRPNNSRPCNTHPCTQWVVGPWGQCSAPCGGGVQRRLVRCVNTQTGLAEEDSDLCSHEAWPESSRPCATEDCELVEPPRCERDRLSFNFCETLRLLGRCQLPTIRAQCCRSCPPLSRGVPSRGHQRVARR
Assay: TMT10 TAILS N-terminomics, SMC1 experiment (Ad-mADAMTS7 WT vs EQ vs Luc, technical replicates, trypsin digest)
Format: cell-based
Details: TAILS neo-N-terminal peptide abundance; log fold change, Ad-mADAMTS7 WT over Luc
From the text: ADAMTS7 Expression, Cell Culture and Preparation of the Secreted Proteins—Full-length mouse Adamts7 1-1857 (Uniprot Q68SA9, WT or E373Q catalytic mutant) with a carboxyl terminal 3xFLAG tag was used to generate custom adenoviruses as previously described. Adeno-CMV-Luciferase (Ad-Luc) from Vector Biolabs was used as a negative control. Human Coronary Artery Smooth Muscle Cells (HCA-SMC) were obtained from Lonza and expanded in Lonza SmGM-2 media in 15 cm tissue culture plates. Twenty-four hours before media collection, near confluent plates were transduced with 50 MOI adenovirus and switched to Lonza Basal SM media with volumes of 20 ml per 15 cm plate. Expression of the Flag tagged ADAMTS7 was confirmed from the media using western blot and detected using the anti-Flag M2-HRP antibody (Sigma, A8592). Collected media was processed by adding protease inhibitors (1 mM EDTA and 1 mM PMSF) and clarified by 500 g×5 min spin at 4 C to pellet cell debris. Cell media supernatants were then passed through a 0.22 um filter and kept chilled. Processed media was then concentrated 50-100× using 3 kDa Centricon Plus-70 filter unit, spun at 3,500 g×60 min at 4 C. Approximately 10% of the processed, concentrated media was set aside for total secretome proteolytic analysis. The remaining 90% of the processed, concentrated media was buffer exchanged into 50 mM HEPES pH 8.0, 150 mM NaCl (2×50 ml) using the 3 kDa Centricon Plus-70 filter unit and concentrated to >2 mg/ml to serve as input for the TAILS experiment. Secretome and TAILS input samples were stored at −80° C.
For the first experiment, referred to as SMC1, 120 ml of media from 6×15 cm dishes was pooled from each condition (Luc, WT, EQ) and processed to produce three separate inputs for the TAILS experiment. Luc, WT and EQ inputs from the SMC1 experiment were each divided into triplicate 400 ug samples to generate technical replicate TAILS data. For the second experiment, referred to as SMC2, media was processed separately in triplicate for each condition (Luc1, Luc2, Luc3, WT1, WT2, WT3, EQ1, EQ2, EQ3) using 60 ml of media from 3×15 cm dishes for each process replicate. Inputs from the SMC2 experiment used process replicates of 300 ug each to generate TAILS data. The third experiment used input from cultured Human umbilical vein endothelial cells (HUVEC) from Lifeline Cell Technology grown in VascuLife Media and transduced in Lifeline Basal EC (+bFGF2 10 ng/ml). The HUVEC experiment used the same strategy as the SMC2 experiment, with 40 ml of media from 2×15 cm dishes for each process replicate and used 200 ug each to generate TAILS data. Inputs for process replicate experiments were restricted to the lowest concentration from the 9 parallel samples for SMC2 or HUVEC.
TMT10 isotopic labeling and negative selection of non-labeled peptides-Sample preparation was performed based on the TAILS protocol from the Overall lab with some modifications. From a single experiment, nine parallel protein samples in 50 mM HEPES pH 8.0, 150 mM NaCl were separately denatured with guanidinium chloride (Sigma, G4505) to reach a final concentration of 2.5M guanidinium chloride and 250 mM HEPES and incubated at 65° C. for 15 min. Reduction was achieved through addition of tris(2-carboxylethyl) phosphine (TCEP) at a final concentration of […] and incubated at 65° C. for 45 min. Alkylation reaction was performed with addition of iodoacetamide (IAA, Sigma, A3221) to a final concentration of 10 mM IAA for 15 min at room temperature in the dark. Following denaturation, reduction and alkylation steps, ten percent of each of the nine parallel protein samples was removed and combined to serve as a pooled reference. Isobaric tags were added to free amine groups using the TMT10plex Isobaric Mass Tagging Kit (ThermoFisher, 90113) with TMT channels randomly assigned to the nine samples and TMT 131 assigned to the pooled reference. […]

logFC.mWT.over.Lux	Substance
1.09	ACTB_21 (FAGDDAPR; listed as Homo sapiens)
1.45	ADAM9_69 (VIQAEGKEHIIHLER; listed as Homo sapiens)
3.23	AEBP1_37 (FLEGFLSELEPEPR; listed as Homo sapiens)
2.27	APLP2_579 (ISETPVDVR; listed as Homo sapiens)
3.84	CCDC80_66 (LEEPNLQPLQR; listed as Homo sapiens)
1.92	EFEMP1_125 (VAGPEMQTGR; listed as Homo sapiens)
0.81	EFHD2_67 (QGIGEPQSPSR; listed as Homo sapiens)
1.01	EHBP1L1_298 (TAPTPAPR; listed as Homo sapiens)
3.46	FBLN2_260 (LGPPAPVQAKAR; listed as Homo sapiens)
4.89	FBN1_53 (LKGPNVCGSR; listed as Homo sapiens)
4.95	FLNA_1285 (LTQTGGPHVKAR; listed as Homo sapiens)
0.85	FN1_1143 (LTPGVEYVYTIQVLR; listed as Homo sapiens)
1.44	FN1_1656 (SSSPVTGYR; listed as Homo sapiens)
2.59	FN1_1731 (FTDVDVDSIKIAWESPQGQVSR; listed as Homo sapiens)
1.11	FN1_2143 (FEEHGFR; listed as Homo sapiens)
2.41	FN1_2217 (FQDTSEYIISCHPVGTDEEPLQFR; listed as Homo sapiens)
4.42	GSN_35 (SQAGAPQGR; listed as Homo sapiens)
1.99	GSN_413 (HIANVER; listed as Homo sapiens)
1.72	HEG1_49 (GAGLELQLER; listed as Homo sapiens)
0.79	HSPG2_1937 (SSAGQQVAR; listed as Homo sapiens)
2.07	HSPG2_2331 (ANLAYPAGSTQPIR; listed as Homo sapiens)
1.93	HSPG2_2333 (LAYPAGSTQPIR; listed as Homo sapiens)
0.60	HSPG2_3542 (IAHVELADAGQYR; listed as Homo sapiens)
0.88	HSPG2_4004 (SAEPLALGR; listed as Homo sapiens)
0.70	HSPG2_4021 (LNKDGSLR; listed as Homo sapiens)
0.63	HSPG2_4133 (DGFKGDLCEHEENPCQLR; listed as Homo sapiens)

The remaining lines, values behind:

Substance	logFC.mWT.over.Lux
ACTB_105 (LTEAPLNPKANR; listed as Homo sapiens)	1.88
ECM1_134 (FGDQSHPEPESWNAAQHCQQDR; listed as Homo sapiens)	3.02
EFEMP1_124 (AVAGPEMQTGR; listed as Homo sapiens)	3.84
FBLN2_259 (ALGPPAPVQAKAR; listed as Homo sapiens)	1.29
FBN1_29 (LEAGNVKETR; listed as Homo sapiens)	4.70
FLNA_612 (SVEGPSQAKIECDDKGDGSCDVR; listed as Homo sapiens)	1.87
FLNA_695 (FTVDAKHGGKAPLR; listed as Homo sapiens)	4.79
FN1_36 (MVQPQSPVAVSQSKPGCYDNGKHYQINQQWER; listed as Homo sapiens)	3.73
FN1_40 (QSPVAVSQSKPGCYDNGKHYQINQQWER; listed as Homo sapiens)	3.87
FN1_45 (VSQSKPGCYDNGKHYQINQQWER; listed as Homo sapiens)	3.70
FN1_47 ([code q]SKPGCYD[code n]GKHYQINQQWER; not fully specified; listed as Homo sapiens)	3.08
FN1_281 (SGSGPFTDVR; listed as Homo sapiens)	2.44
FN1_282 (GSGPFTDVR; listed as Homo sapiens)	3.74
FN1_886 (NQESTPVVIQQETTGTPR; listed as Homo sapiens)	1.70
GALNT2_31 (LAGGAGGGAGR; listed as Homo sapiens)	0.76
HLA−C_52 (VDDTQFVR; listed as Homo sapiens)	1.14
HSPG2_275 (LLPGSVR; listed as Homo sapiens)	2.87
HSPG2_2688 (VADSGEYVCR; listed as Homo sapiens)	3.16
HSPG2_3250 (SPLPWQHR; listed as Homo sapiens)	1.00
HSPG2_3647 ([pGlu]GKVKAFAHLQVPER; listed as Homo sapiens)	0.96
HSPG2_3672 (SFLPLPTIKDAYR; listed as Homo sapiens)	1.09
HSPG2_3813 (SSGFIGCVR; listed as Homo sapiens)	0.81
HSPG2_4075 (GCVGEVSVNGKR; listed as Homo sapiens)	0.77
